Test results: PMC9482650, “Quantitative fragmentomics allow affinity mapping of interactomes” (Nature Communications, 2022)

How the values were obtained:
Test in all cases: holdup assay
Design in all cases: key: below the threshold = too weak to quantify, mostly under pKd 3.1 to 4
Settings in all cases: plain residues with an end cap or a label only (N-terminal biotin on a linker: ado-ado)
CASK, O14936 = target: CASK, O14936
DLG3_1, Q92796 = target: T1, DLG3_1, Q92796
T1 sequence (Q92796 125-227, limits assumed, looked up): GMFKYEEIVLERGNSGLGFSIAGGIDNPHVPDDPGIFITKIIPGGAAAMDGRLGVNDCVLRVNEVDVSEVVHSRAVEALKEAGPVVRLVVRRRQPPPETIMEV

DLG3_2, Q92796 = target: T2, DLG3_2, Q92796
T2 sequence (Q92796 221-321, limits assumed, looked up): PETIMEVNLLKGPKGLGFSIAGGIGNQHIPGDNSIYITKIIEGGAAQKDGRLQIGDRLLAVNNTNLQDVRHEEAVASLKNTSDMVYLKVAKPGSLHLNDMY

DLG4_1, P78352 = target: DLG4_1, P78352
FRMPD2_1, Q68DX3 = target: FRMPD2_1, Q68DX3
FRMPD2_2, Q68DX3 = target: FRMPD2_2, Q68DX3
FRMPD2_3, Q68DX3 = target: FRMPD2_3, Q68DX3
GORASP1, Q9BQQ3 = target: GORASP1, Q9BQQ3
GORASP2, Q9H8Y8 = target: GORASP2, Q9H8Y8
GRID2IP_1, A4D2P6 = target: GRID2IP_1, A4D2P6
GRIP1_7, Q9Y3R0 = target: T3, GRIP1_7, Q9Y3R0
T3 sequence (Q9Y3R0 999-1096, limits assumed, looked up): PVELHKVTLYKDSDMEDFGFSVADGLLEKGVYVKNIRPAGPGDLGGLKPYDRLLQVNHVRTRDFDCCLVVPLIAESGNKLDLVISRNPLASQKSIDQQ

HTRA3, P83110 = target: T4, HTRA3, P83110
T4 sequence (P83110 354-453, limits assumed, looked up): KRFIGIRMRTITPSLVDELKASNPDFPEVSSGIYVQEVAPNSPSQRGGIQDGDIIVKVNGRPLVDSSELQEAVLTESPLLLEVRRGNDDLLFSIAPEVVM

Inadl_5, Q8NI35 = target: Inadl_5, Q8NI35
Inadl_8, Q8NI35 = target: Inadl_8, Q8NI35
LAP2, Q96RT1 = target: LAP2, Q96RT1
LIN7A, O14910 = target: T5, LIN7A, O14910
T5 sequence (O14910 103-200, limits assumed, looked up): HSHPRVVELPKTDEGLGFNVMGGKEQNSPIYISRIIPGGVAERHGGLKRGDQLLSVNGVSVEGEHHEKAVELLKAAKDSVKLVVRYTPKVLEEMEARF

MAGI1_1, Q96QZ7 = target: MAGI1_1, Q96QZ7
MAGI2_6, Q86UL8 = target: MAGI2_6, Q86UL8
MAGI3_2, Q5TCQ9 = target: MAGI3_2, Q5TCQ9
MPDZ_5, O75970 = target: T6, MPDZ_5, O75970
T6 sequence (O75970 695-796, limits assumed, looked up): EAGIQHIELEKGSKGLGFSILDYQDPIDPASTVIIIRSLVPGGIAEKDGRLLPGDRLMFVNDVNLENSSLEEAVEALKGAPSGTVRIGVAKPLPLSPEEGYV

NHERF3_3, Q5T2W1 = target: T7, NHERF3_3, Q5T2W1
T7 sequence (Q5T2W1 238-333, limits assumed, looked up): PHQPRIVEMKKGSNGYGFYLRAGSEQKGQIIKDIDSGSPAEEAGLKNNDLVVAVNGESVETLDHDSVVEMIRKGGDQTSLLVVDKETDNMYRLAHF

NHERF3_4, Q5T2W1 = target: T8, NHERF3_4, Q5T2W1
T8 sequence (Q5T2W1 373-468, limits assumed, looked up): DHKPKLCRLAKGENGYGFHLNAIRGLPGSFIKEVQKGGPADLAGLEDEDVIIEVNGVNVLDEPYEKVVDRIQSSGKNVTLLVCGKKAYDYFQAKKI

PDZD2_2, O15018 = target: T9, PDZD2_2, O15018
T9 sequence (O15018 329-429, limits assumed, looked up): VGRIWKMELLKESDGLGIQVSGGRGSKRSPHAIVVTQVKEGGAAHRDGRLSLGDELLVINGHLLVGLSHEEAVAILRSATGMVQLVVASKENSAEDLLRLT

RHPN1, Q8TCX5 = target: T10, RHPN1, Q8TCX5
T10 sequence (Q8TCX5 508-602, limits assumed, looked up): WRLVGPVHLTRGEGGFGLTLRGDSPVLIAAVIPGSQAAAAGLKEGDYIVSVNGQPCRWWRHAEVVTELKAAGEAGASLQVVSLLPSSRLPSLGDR

SCRIB_2, Q14160 = target: SCRIB_2, Q14160
SNTB1, Q13884 = target: T11, SNTB1, Q13884
T11 sequence (Q13884 107-205, limits assumed, looked up): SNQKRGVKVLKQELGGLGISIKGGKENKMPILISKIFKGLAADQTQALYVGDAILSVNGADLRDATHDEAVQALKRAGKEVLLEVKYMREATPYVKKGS

TJP1_2, Q07157 = target: TJP1_2, Q07157

Measured: pKd

LAP2, Q96RT1, sequence (Q96RT1 other isoform, or with tags, fused parts or gaps): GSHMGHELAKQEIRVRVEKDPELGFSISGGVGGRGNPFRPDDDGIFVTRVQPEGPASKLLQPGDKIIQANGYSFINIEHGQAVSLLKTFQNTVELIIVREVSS
MAGI3_2, Q5TCQ9, sequence (Q5TCQ9 398-503): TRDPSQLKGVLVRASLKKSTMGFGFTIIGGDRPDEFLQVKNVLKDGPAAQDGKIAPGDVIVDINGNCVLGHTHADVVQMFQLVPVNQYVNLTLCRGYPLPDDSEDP
Inadl_8, Q8NI35, sequence (Q8NI35 1425-1530): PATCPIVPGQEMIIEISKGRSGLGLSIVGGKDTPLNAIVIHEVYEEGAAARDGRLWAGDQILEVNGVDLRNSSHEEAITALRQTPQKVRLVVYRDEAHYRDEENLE
GRID2IP_1, A4D2P6, sequence (A4D2P6 1-87): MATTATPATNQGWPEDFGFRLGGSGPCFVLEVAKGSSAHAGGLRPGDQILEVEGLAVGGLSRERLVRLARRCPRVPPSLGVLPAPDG
FRMPD2_1, Q68DX3, sequence (Q68DX3 770-861): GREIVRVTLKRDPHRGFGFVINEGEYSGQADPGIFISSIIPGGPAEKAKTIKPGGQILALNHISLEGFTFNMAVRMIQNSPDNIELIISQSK
CASK, O14936, sequence (O14936 487-570): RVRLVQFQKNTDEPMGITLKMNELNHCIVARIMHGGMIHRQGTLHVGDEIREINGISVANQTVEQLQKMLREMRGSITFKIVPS
FRMPD2_2, Q68DX3, sequence (Q68DX3 944-1038): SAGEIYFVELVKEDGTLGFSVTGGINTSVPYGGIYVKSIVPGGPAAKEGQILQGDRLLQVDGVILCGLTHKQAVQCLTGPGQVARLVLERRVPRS
MAGI2_6, Q86UL8, sequence (Q86UL8 1141-1229): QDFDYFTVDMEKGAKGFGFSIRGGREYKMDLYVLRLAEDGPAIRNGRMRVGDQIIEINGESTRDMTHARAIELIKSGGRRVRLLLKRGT
FRMPD2_3, Q68DX3, sequence (Q68DX3 1073-1166): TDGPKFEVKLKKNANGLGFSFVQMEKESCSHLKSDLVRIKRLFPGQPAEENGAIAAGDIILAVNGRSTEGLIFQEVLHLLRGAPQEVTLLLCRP
GORASP1, Q9BQQ3, sequence (Q9BQQ3 1-208): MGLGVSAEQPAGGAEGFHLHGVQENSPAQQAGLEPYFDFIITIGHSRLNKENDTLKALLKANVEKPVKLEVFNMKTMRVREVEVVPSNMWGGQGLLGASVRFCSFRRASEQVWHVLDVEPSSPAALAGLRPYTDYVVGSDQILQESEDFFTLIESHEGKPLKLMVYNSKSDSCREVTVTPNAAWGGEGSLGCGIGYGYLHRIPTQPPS
MAGI1_1, Q96QZ7, sequence (Q96QZ7 1-106): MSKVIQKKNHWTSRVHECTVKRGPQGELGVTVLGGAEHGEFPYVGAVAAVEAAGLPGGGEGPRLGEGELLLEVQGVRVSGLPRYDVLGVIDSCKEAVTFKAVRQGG
DLG4_1, P78352, sequence (P78352 62-152): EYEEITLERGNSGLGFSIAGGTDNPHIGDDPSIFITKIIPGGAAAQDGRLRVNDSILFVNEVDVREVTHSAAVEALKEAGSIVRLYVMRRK
TJP1_2, Q07157, sequence (Q07157 181-274): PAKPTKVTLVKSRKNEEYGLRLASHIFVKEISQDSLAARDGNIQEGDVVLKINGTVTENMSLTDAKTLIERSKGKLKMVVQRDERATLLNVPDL
SCRIB_2, Q14160, sequence (Q14160 857-960): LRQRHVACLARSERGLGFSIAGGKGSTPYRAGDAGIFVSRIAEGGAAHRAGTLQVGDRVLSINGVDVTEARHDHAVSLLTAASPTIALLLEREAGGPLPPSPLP
Inadl_5, Q8NI35, sequence (Q8NI35 673-780): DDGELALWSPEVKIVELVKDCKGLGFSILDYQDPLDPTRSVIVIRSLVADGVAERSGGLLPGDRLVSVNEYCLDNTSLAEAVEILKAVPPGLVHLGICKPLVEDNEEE

DTKNYKQTSV [CRIPT, Q9P021]
4.61: DLG3_2, Q92796 | SCRIB_2, Q14160
4.07: RHPN1, Q8TCX5
4.37: DLG4_1, P78352
3.56: LIN7A, O14910 | NHERF3_4, Q5T2W1
4.72: MAGI3_2, Q5TCQ9
4.73: SNTB1, Q13884
4.76: PDZD2_2, O15018
3.69: DLG3_1, Q92796
4.32: LAP2, Q96RT1
3.75: MAGI2_6, Q86UL8
4.66: Inadl_8, Q8NI35
below the threshold: all other assays above

DRIQSCLSDA [SBF1, O95248]
4.19: DLG3_2, Q92796
3.57: HTRA3, P83110
below the threshold: all other assays above

SFISKKEWYV [NECTIN1, Q15223]
3.66: Inadl_8, Q8NI35
3.56: MAGI2_6, Q86UL8
4.61: MPDZ_5, O75970
3.87: FRMPD2_2, Q68DX3
5.55: MAGI3_2, Q5TCQ9
4.11: DLG3_2, Q92796
4.82: Inadl_5, Q8NI35
4.83: HTRA3, P83110
5.02: PDZD2_2, O15018
4.67: GORASP2, Q9H8Y8
4.31: FRMPD2_3, Q68DX3
5.06: GRIP1_7, Q9Y3R0
4.22: FRMPD2_1, Q68DX3
4.44: GORASP1, Q9BQQ3
below the threshold: all other assays above

PSVGSKKTVL [REELD1, A0A1B0GV85]
3.51: MAGI3_2, Q5TCQ9
3.92: RHPN1, Q8TCX5
3.87: NHERF3_4, Q5T2W1
3.52: PDZD2_2, O15018
3.56: SNTB1, Q13884
below the threshold: all other assays above
